Experimental data taken from publication PMC3735941, “Clostridium scindens: a human gut microbe with a high potential to convert glucocorticoids into androgens” (Journal of Lipid Research, 2013).

Legend:
Experiment in all cases: purified protein
Type in all cases: biochemical, [Clostridium] scindens
[1] = test system: C[C@]12CCC(=O)C=C1CC[C@@H]1[C@@H]2[C@@H](O)C[C@@]2(C)[C@H]1CC[C@]2(O)C(=O)CO; conditions: NADH co-substrate (150 μM in standard assay), 20 mM sodium phosphate pH 7.0, 0.1 M NaCl, 20% glycerol, 10 mM 2-mercaptoethanol, reductive direction
[2] = test system: C[C@]12CCC(=O)C=C1CC[C@@H]1[C@@H]2C(=O)C[C@@]2(C)[C@H]1CC[C@]2(O)[C@@H](O)CO; conditions: co-substrate not printed for this constant (oxidative direction, NAD+ presumed), 20 mM sodium phosphate pH 7.0, 0.1 M NaCl, 20% glycerol, 10 mM 2-mercaptoethanol
[3] = test system: C[C@]12CCC(=O)C=C1CC[C@@H]1[C@@H]2C(=O)C[C@@]2(C)[C@H]1CC[C@]2(O)C(=O)CO; conditions: NADH co-substrate (150 μM in standard assay), 20 mM sodium phosphate pH 7.0, 0.1 M NaCl, 20% glycerol, 10 mM 2-mercaptoethanol, reductive direction

DesC (20α-HSDH; desC-ST) ([Clostridium] scindens ATCC 35704)
Km [1]: 1.46 µM | Km [2]: 4.54 µM | Km [3]: 5.35 µM
